In experiment [1] the target is CT7-Tlpa coil fusion protein (Tlpa coiled-coil domain - GGSGG linker - C-terminal T7 RNA polymerase fragment) (T7 phage). The experiment can be described thus: cell-based or functional assay.
Experiment [2] deals with CT7 protein fragment (C-terminal T7 RNA polymerase fragment without Tlpa coiled-coil) (T7 phage, UniProt P00573 564-883). The experiment can be described thus: cell-based or functional assay.

The values that follow come from US20240035059A1 (NATIONAL UNIVERSITY OF SINGAPORE, published 2024).

In experiment [1], “NT7-Tlpa coil fusion protein (N-terminal T7 RNA polymerase fragment - GGSGG linker - Tlpa coiled-coil domain)” yielded a fold-difference of pT7-GFP reporter between 30° C. and 42° C., Thermal-T7RNAP(v3) of 24 fold; a half-activation temperature Km of pT7-GFP reporter, Thermal-T7RNAP(v1) of 37.5 ° C; a half-activation temperature Km of pT7-GFP reporter, Thermal-T7RNAP(v2) of 38.4 ° C; a half-activation temperature Km of pT7-GFP reporter, Thermal-T7RNAP(v3) of 36.3 ° C. In experiment [1], this molecule registered a maximum repression capacity Kinh of pT7-GFP reporter, Thermal-T7RNAP(v1) of 0.957; a maximum repression capacity Kinh of pT7-GFP reporter, Thermal-T7RNAP(v2) of 0.427; a maximum repression capacity Kinh of pT7-GFP reporter, Thermal-T7RNAP(v3) of 0.971.

B1: NT7 protein fragment (N-terminal T7 RNA polymerase fragment without Tlpa coiled-coil) (other)
chain: MNTINIAKNDFSDIELAAIPFNTLADHYGERLAREQLALEHESYEMGEARFRKMFERQLKAGEVADNAAAKPLITTLLPKMIARINDWFEEVKAKRGKRPTAFQFLQEIKPEAVAYITIKTTLACLTSADNTTVQAVASAIGRAIEDEARFGRIRDLEAKHFKKNVEEQLNKRVGHVYKKAFMQVVEADMLSKGLLGGEAWSSWHKEDSIHVGVRCIEMLIESTGMVSLHRQNAGVVGQDSETIELAPEYAEAIATRAGALAGISPMFQPCVVPPKPWTGITGGGYWANGRRPLALVRTHSKKALMRYEDVYMPEVYKAINIAQNTAWKINKKVLAVANVITKWKHCPVEDIPAIEREELPMKPEDIDMNPEALTAWKRAAAAVYRKDKARKSRRISLEFMLEQANKFANHKAIWFPYNMDWRGRVYAVSMFNPQGNDMTKGLLTLAKGKPIGKEGYYWLKIHGANCAGVDKVPFPERIKFIEENHENIMACAKSPLENTWWAEQDSPFCFLAFCFEYAGVQHHGLSYNCSLPLAFDGSCSGIQHFSAMLRDEVGGRAVNLLP
Regarding B1, the “fold-difference of pT7-GFP reporter between 30° C. and 42° C., Split-T7 system (no Tlpa coil)” value in experiment [2] was determined as 4 fold.
